The values that follow come from PMC10680758.

The target in the data set is T1, eIF4G (unlabeled) (Saccharomyces cerevisiae, UniProt P39935 1-952).
T1 sequence: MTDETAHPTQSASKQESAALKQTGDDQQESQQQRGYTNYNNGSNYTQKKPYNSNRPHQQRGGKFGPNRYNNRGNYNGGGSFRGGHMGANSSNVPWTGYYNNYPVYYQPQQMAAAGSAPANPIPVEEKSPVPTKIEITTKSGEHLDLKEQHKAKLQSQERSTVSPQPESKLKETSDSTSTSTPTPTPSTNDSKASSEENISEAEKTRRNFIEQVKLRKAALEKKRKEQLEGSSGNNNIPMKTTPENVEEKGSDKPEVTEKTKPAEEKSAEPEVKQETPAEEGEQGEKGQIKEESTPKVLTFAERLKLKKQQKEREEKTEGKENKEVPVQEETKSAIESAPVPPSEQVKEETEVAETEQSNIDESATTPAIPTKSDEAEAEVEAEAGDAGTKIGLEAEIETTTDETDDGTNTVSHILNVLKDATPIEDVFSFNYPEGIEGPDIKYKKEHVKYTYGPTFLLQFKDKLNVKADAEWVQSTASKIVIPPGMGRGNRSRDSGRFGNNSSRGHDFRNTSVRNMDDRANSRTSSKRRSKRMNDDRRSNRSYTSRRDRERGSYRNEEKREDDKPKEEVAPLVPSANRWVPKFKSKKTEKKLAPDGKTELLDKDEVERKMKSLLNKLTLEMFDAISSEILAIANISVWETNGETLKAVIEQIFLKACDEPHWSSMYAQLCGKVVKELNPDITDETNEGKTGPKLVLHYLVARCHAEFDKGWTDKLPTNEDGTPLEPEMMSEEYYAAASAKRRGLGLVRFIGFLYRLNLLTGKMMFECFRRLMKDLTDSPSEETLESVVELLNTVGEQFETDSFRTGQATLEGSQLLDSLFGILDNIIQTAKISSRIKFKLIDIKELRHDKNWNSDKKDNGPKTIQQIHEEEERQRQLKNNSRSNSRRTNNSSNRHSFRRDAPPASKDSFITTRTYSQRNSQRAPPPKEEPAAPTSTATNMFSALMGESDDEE
Put plainly: fluorescence anisotropy.

B1: rpl41a 51mer-FAM (ssRNA)
RNA: GGAGACCACAUCGAUUCAAUCGAAAUGAGAGCCAAGUGGAGAAAGAAGAGA
On to B1, for which the binding result is “binds”.
